Experimental data published in article PMC3608632.

What was measured:
[1] = target: hyperphosphorylated R-topo I (CK2-treated baculovirus-expressed recombinant human topo I) (human) (UniProt P11387)
[2] = target: hyperphosphorylated R-topo I (CK2-treated baculovirus-expressed recombinant human topo I) (human) (UniProt P11387); conditions: scale: % of supercoiled DNA converted to the relaxed form
[3] = target: basal phosphorylated baculovirus-expressed recombinant human topo I (R-topo I) (human) (UniProt P11387); conditions: scale: % of supercoiled plasmid converted to the relaxed form
p14ARF (ARF) = p14ARF (ARF) (UniProt Q8N726); test: anti-FLAG IP, ARF Western; conditions: reference: wild-type full-length topo I (construct 6); sites S506

| non-covalent association of R-topo I with radiolabeled plasmid DNA (DNA co-immunoprecipitated with topo I; 75 mM NaCl, 4°C), ARF added at a 1:1 molar ratio; ~60% without ARF (% of input DNA) [1] | relaxation of supercoiled plasmid DNA by R-topo I with ARF added (∼70% without ARF) [2] | relaxation of supercoiled plasmid DNA by R-topo I with ARF added (about 40% without ARF) [3] | binding against the reference (p14ARF (ARF)) | Substance |
| --- | --- | --- | --- | --- |
| 80 | 100 | 50 |  | recombinant thioredoxin-human ARF fusion protein (from UniProt Q8N726 1-132) (natural protein) |
|  |  |  | weaker | topoisomerase I (topo I) (from UniProt P11387) S506A full-length topo I (construct 9) |
